Assay results published in patent US20160024193A1 (AC IMMUNE S A, published 2016).
No end group written: not given here. *: point of attachment. Biotin = O=C1N[C@H]2[C@H](CS[C@H]2CCCCC(=O)*)N1; linker = not defined here

Assays:
[1] = target: PKA-phosphorylated full-length Tau (Homo sapiens) (UniProt P10636); assay: SPR Biacore 2000, bivalent IgG1 analyte, ~153 RU PKA-phospho Tau, ligand density 1
[2] = target: PKA-phosphorylated full-length Tau (Homo sapiens) (UniProt P10636); assay: SPR Biacore 2000, bivalent IgG1 analyte, ~824 RU PKA-phospho Tau, ligand density 2
Non-phospho. = target: T1, Non-phospho. (not fully specified; printed as Biotin - linker - GDTSPRHLSNVSSTGSID; reading uncertain); assay: ELISA: plate coated with 5 µg/ml IgG, 10 nM biotinylated peptide in solution, streptavidin-peroxidase/TMB, absorbance 450 nm
T1 construct: also called non-phosphorylated biotinylated Tau 401-418 peptide
T1 peptide: {Biotin-linker}-GDTSPRHLSNVSSTGSID
Description: FIG. 3. Binding of immobilized IgG antibodies to Tau-derived biotinylated peptides containing pS404 and/or pS409 as measured by ELISA. […] 10 nM of the biotinylated peptides shown in FIG. 3, and 5 μg/ml IgG, were used.
Specificity of the top five clones for phosphoserine 404 and phosphoserine 409 was also assessed by ELISA. In one experiment (FIG. 3), Nunc maxisorp microplates were coated with 5 μg/ml IgG in coating buffer (sodium carbonate pH9.6) for 70 minutes at ambient temperature. Non-specific binding sites were blocked with BBT for a minimum of 2 hours then the plates washed and 10 nM biotinylated peptide in BBT added. After 1.5 hours bound peptide was detected by a 65 minute incubation with peroxidase-conjugated Streptavidin and detection with TMB as described above. […] The peptides synthesized and used in this experiment (which correspond to amino acids 401-418 of full-length Tau) have the following amino acid sequences (Table B): […]

[3] = target: PKA-phosphorylated full-length Tau (Homo sapiens) (UniProt P10636); assay: ELISA: plate coated with 1 µg/ml PKA-phosphorylated full-length Tau, IgG titrated 0.06 pM to 1 nM, anti-human Fc-peroxidase/TMB, absorbance 450 nm [panel A]
[4] = target: PKA-phosphorylated full-length Tau (Homo sapiens) (UniProt P10636); assay: ELISA: plate coated with 0.1 µg/ml PKA-phosphorylated full-length Tau, IgG titrated 0.06 pM to 1 nM, anti-human Fc-peroxidase/TMB, absorbance 450 nm [panel B]

Sequence of PKA-phosphorylated full-length Tau (Homo sapiens) (P10636 other isoform, or with tags, fused parts or gaps limits assumed): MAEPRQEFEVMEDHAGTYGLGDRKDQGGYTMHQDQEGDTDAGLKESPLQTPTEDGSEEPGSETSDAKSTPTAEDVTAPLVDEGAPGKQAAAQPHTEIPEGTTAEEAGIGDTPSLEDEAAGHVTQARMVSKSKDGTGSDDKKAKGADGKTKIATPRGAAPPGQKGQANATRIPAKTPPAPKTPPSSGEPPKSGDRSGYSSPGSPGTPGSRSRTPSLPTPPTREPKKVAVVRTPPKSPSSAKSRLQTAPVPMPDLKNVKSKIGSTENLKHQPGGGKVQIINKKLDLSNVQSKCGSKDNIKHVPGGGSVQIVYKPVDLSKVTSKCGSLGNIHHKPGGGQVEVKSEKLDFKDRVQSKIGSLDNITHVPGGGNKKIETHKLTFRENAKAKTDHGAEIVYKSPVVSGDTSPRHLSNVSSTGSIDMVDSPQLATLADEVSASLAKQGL

Kd [1]: 0.8 nM | koff [1]: 0.0012 s⁻¹ | kon [1]: 1.6e+06 M⁻¹ s⁻¹ | Kd [2]: 0.2 nM | koff [2]: 0.0003 s⁻¹ | kon [2]: 1.6e+06 M⁻¹ s⁻¹ | binding result (Non-phospho.): no binding (tested: 10 nM) | EC50 (read off the curve) [3]: 0.006 nM | EC50 (read off the curve) [4]: 0.02 nM
B1: TAM20 IgG1 (antibody, V domains shown)
VH: EVQLVQSGAEVKKPGSSVKVSCKASGYTFTDYYMNWVRQAPGQGLEWIGDINPNRGGTTYNQKFKGRVTITVDKSTSTAYMELSSLRSEDTAVYYCASYYAVGYWGQGTTVTVSS
VL: DIVMTQTPLSLPVTPGEPASISCRSSQSLVHSHGRTYLHWYLQKPGQSPQLLIYKVSNRFFGVPDRFSGSGSGTDFTLKISRVEAEDVGVYFCSQTRHFPYTFGGGTKVEIKR
